Assay results reported in article PMC4834876.

Target: F-actin (filamentous actin) from rabbit muscle (rabbit), P68135
Test: co-sedimentation
Conditions: remark: other sources report otherwise

percent co-pelleted (with APC-C1 added): 50%
B1: EB1 full-length (end-binding protein 1), wild type, Q15691 1-268 (natural protein)
chain: MAVNVYSTSVTSDNLSRHDMLAWINESLQLNLTKIEQLCSGAAYCQFMDMLFPGSIALKKVKFQAKLEHEYIQNFKILQAGFKRMGVDKIIPVDKLVKGKFQDNFEFVQWFKKFFDANYDGKDYDPVAARQGQETAVAPSLVAPALNKPKKPLTSSSAAPQRPISTQRTAAAPKAGPGVVRKNPGVGNGDDEAAELMQQVNVLKLTVEDLEKERDFYFGKLRNIELICQENEGENDPVLQRIVDILYATDEGFVIPDEGGPQEEQEEY
